Laboratory results taken from patent US20230265151A1, “GIP/GLP1 CO-AGONIST COMPOUNDS” (priority 2020, published 2023).
*1 amine or outer side, *2 acyl side, *3 side chain or, on linkers, in order; H or OH if unused. Where no end group is shown, it is not given here. Side-chain parts run from the residue outwards. [ ]: non-standard residue; d: D form. The star is where a group is joined. αMePhe(2-F) = C[C@](N)(Cc1ccccc1F)C(=O)O; γGlu = O=C(O)[C@H](CCC(=O)[*:2])N[*:1]; C14 diacid = O=C(O)CCCCCCCCCCCCC(=O)*; αMeY = C[C@](N)(Cc1ccc(O)cc1)C(=O)O; αMeL = CC(C)C[C@](C)(N)C(=O)O; Nle = CCCC[C@H](N)C(=O)O; Orn = NCCC[C@H](N)C(=O)O; AEEA = NCCOCCOCC(=O)O; Aib = CC(C)(N)C(=O)O

Key:
Test in all cases: cell-based or functional assay
[1] = target: T1, human GIP receptor (human, UniProt P48546 22-466)
T1 sequence (looked up): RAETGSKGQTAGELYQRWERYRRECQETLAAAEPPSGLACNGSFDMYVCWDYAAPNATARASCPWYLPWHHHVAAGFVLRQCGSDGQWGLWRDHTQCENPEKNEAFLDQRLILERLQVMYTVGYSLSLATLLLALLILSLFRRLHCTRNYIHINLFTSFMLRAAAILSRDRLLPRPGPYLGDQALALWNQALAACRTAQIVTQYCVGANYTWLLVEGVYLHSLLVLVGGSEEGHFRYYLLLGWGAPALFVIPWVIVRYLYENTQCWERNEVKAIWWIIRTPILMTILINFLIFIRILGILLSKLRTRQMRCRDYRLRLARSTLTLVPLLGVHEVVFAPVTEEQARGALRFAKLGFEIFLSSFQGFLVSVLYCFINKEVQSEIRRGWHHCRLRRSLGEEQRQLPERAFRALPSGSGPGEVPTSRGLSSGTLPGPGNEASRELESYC

[2] = target: human GLP-1 receptor (human, UniProt P43220 24-463)
[3] = target: human glucagon receptor (human, UniProt P47871 26-477)
[4] = target: hGLP-1R (Homo sapiens, UniProt P43220)
[5] = target: T2, human GIP receptor (human) (UniProt P48546)
T2 sequence (looked up): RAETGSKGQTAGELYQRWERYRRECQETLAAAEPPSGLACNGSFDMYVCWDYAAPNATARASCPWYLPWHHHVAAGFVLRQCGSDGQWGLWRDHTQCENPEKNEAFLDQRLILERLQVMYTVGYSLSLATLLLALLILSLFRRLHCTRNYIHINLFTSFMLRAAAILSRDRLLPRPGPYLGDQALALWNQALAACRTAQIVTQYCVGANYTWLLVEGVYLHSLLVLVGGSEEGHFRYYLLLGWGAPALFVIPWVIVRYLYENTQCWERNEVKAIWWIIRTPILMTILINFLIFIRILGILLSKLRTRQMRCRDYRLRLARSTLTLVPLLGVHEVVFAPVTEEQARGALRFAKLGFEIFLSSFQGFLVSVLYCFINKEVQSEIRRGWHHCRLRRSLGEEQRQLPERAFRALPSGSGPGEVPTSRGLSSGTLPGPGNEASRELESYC

[6] = target: human glucagon receptor (human) (UniProt P47871)

Sequence of human glucagon receptor (P47871 26-477): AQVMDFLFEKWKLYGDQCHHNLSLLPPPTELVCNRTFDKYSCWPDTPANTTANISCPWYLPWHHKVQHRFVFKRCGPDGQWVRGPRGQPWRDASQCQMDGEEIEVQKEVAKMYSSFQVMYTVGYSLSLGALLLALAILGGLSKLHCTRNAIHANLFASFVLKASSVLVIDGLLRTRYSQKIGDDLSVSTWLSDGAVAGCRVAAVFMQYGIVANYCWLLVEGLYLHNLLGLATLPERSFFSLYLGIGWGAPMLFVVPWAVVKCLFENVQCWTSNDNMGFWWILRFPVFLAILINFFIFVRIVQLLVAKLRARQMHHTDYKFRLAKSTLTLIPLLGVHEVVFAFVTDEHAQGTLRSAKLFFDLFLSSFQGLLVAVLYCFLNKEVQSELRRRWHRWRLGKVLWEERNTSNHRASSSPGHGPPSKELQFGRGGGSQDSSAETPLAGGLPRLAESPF

B1: Example 468 (peptide)
peptide: YXEGTXTSDXXIXLDXQAQXXFIKXLIKGGPSSGAPPPS
modifications: Y-Aib-EGT-αMeF(2F)-TSD-4Pal-Aib-I-αMeL-LD-Orn-QAQ-Aib-Orn-FIK(PEG6-(γ-Glu)-(10-(4-carboxyphenoxy)decanoyl))-αMeY-LIK(PEG6-(γ-Glu)-(10-(4-carboxyphenoxy)decanoyl))GGPSSGAPPPS-NH2
cAMP EC50 (1.0% HSA) [1]: 0.222 nM | cAMP EC50 (1.0% HSA) [2]: 1.84 nM | cAMP EC50 (1.0% HSA) [3]: > 10100 nM

B2: Example 467 (peptide)
peptide: YXEGTXTSDXXIXLDXQAQXXFIKXLIKGGPSSGAPPPS
modifications: Y-Aib-EGT-αMeF(2F)-TSD-4Pal-Aib-I-αMeL-LD-Orn-QAQ-Aib-Orn-FIK(PEG5-(γ-Glu)-CO-(CH2)12-CO2H)-αMeY-LIK(PEG5-(γ-Glu)-CO-(CH2)12-CO2H)GGPSSGAPPPS-NH2
cAMP EC50 (1.0% HSA) [1]: 0.35 nM | cAMP EC50 (1.0% HSA) [2]: 2.87 nM | cAMP EC50 (1.0% HSA) [3]: > 10100 nM

B3: Example 484 (peptide)
peptide: YXEGTXTSDXXIXLDXQAQXXFIKXLIKGGPSSGAPPPS
modifications: Y-Aib-EGT-αMeF(2F)-TSD-4Pal-Aib-I-αMeL-LD-Orn-QAQ-Aib-Orn-FIK((2-[2-(2-Amino-ethoxy)-ethoxy]-acetyl)-(γ-Glu)-(2-[2-(2-Amino-ethoxy)-ethoxy]-acetyl)-(γ-Glu)-CO-(CH2)12-CO2H)-αMeY-LIK((2-[2-(2-Amino-ethoxy)-ethoxy]-acetyl)-(γ-Glu)-(2-[2-(2-Amino-ethoxy)-ethoxy]-acetyl)-(γ-Glu)-CO-(CH2)12-CO2H)GGPSSGAPPPS-NH2
cAMP EC50 (1.0% HSA) [1]: 0.453 nM | cAMP EC50 (1.0% HSA) [2]: 3.66 nM | cAMP EC50 (1.0% HSA) [3]: > 9950 nM

B4: Example 416 (peptide)
peptide: YXEGTXTSDXXIXLDXKAQXXFIXXLIKGGPSSGAPPPS
modifications: Y-Aib-EGT-αMeF(2F)-TSD-4Pal-Aib-I-αMeL-LD-Orn-K((2-[2-(2-Amino-ethoxy)-ethoxy]-acetyl)2-(γ-Glu)-CO-(CH2)10-CH3)AQ-Aib-4Pal-FI-(D-Glu)-αMeY-LIK((2-[2-(2-Amino-ethoxy)-ethoxy]-acetyl)2-(γ-Glu)-CO-(CH2)10-CH3)GGPSSGAPPPS-NH2
cAMP EC50 [4]: 0.332 nM | cAMP Emax [4]: 104% | cAMP EC50 [5]: 0.0214 nM | cAMP Emax [5]: 99% | cAMP EC50 [6]: > 9950 nM | cAMP EC50 (1.0% HSA) [1]: 0.723 nM | cAMP Emax (1.0% HSA) [1]: 83% | cAMP EC50 (1.0% HSA) [3]: > 9950 nM

B5: Example 466 (peptide)
peptide: YXEGTXTSDXXIXLDXQAQXXFIKXLIKGGPSSGAPPPS
modifications: Y-Aib-EGT-αMeF(2F)-TSD-4Pal-Aib-I-αMeL-LD-Orn-QAQ-Aib-Orn-FIK(PEG6-(γ-Glu)-CO-(CH2)12-CO2H)-αMeY-LIK(PEG6-(γ-Glu)-CO-(CH2)12-CO2H)GGPSSGAPPPS-NH2
cAMP EC50 (1.0% HSA) [1]: 0.314 nM | cAMP EC50 (1.0% HSA) [2]: 3.32 nM | cAMP EC50 (1.0% HSA) [3]: > 10100 nM

B6: Example 482 (peptide)
peptide: YXEGTXTSDXXIXLDXQAQXXFIKXLIKGGPSSGAPPPS
modifications: Y-Aib-EGT-αMeF(2F)-TSD-4Pal-Aib-I-αMeL-LD-Orn-QAQ-Aib-Orn-FIK((γ-Glu)-(2-[2-(2-Amino-ethoxy)-ethoxy]-acetyl)2-(γ-Glu)-CO-(CH2)12-CO2H)-αMeY-LIK((γ-Glu)-(2-[2-(2-Amino-ethoxy)-ethoxy]-acetyl)2-(γ-Glu)-CO-(CH2)12-CO2H)GGPSSGAPPPS-NH2
cAMP EC50 (1.0% HSA) [1]: 0.89 nM | cAMP EC50 (1.0% HSA) [2]: 4.85 nM | cAMP EC50 (1.0% HSA) [3]: > 9950 nM

B7: Example 476 (peptide)
peptide: YXEGTXTSDXXIXLDXQAQXXFIKXLIKGGPSSGAPPPS
modifications: Y-Aib-EGT-αMeF(2F)-TSD-4Pal-Aib-I-αMeL-LD-Orn-QAQ-Aib-Orn-FIK((2-[2-(2-Amino-ethoxy)-ethoxy]-acetyl)3-(γ-Glu)-CO-(CH2)12-CO2H)-αMeY-LIK((2-[2-(2-Amino-ethoxy)-ethoxy]-acetyl)3-(γ-Glu)-CO-(CH2)12-CO2H)GGPSSGAPPPS-NH2
cAMP EC50 (1.0% HSA) [1]: 0.154 nM | cAMP EC50 (1.0% HSA) [2]: 1.5 nM | cAMP EC50 (1.0% HSA) [3]: > 9950 nM

B8: Example 473 (peptide)
peptide: YXEGTXTSDXXIXLDXQAQXXFIKXLIKGGPSSGAPPPS
modifications: Y-Aib-EGT-αMeF(2F)-TSD-4Pal-Aib-I-αMeL-LD-Orn-QAQ-Aib-Orn-FIK((2-[2-(2-Amino-ethoxy)-ethoxy]-acetyl)-Trx-(γ-Glu)-(10-(4-carboxyphenoxy)decanoyl))-αMeY-LIK(((2-[2-(2-Amino-ethoxy)-ethoxy]-acetyl)-Trx-(γ-Glu)-(10-(4-carboxyphenoxy)decanoyl))GGPSSGAPPPS-NH2)
cAMP EC50 (1.0% HSA) [1]: 0.979 nM | cAMP EC50 (1.0% HSA) [2]: 7.07 nM | cAMP EC50 (1.0% HSA) [3]: > 9950 nM

B9: Example 486 (peptide)
peptide: YXEGTXTSDXXIXLDXQAQXXFIKXLIKGGPSSGAPPPS
modifications: Y-Aib-EGT-αMeF(2F)-TSD-4Pal-Aib-I-αMeL-LD-Orn-QAQ-Aib-Orn-FIK((2-[2-(2-Amino-ethoxy)-ethoxy]-acetyl)-(γ-Glu)3-CO-(CH2)12-CO2H)-αMeY-LIK((2-[2-(2-Amino-ethoxy)-ethoxy]-acetyl)-(γ-Glu)3-CO-(CH2)12-CO2H)GGPSSGAPPPS-NH2
cAMP EC50 (1.0% HSA) [1]: 0.239 nM | cAMP EC50 (1.0% HSA) [2]: 2 nM | cAMP EC50 (1.0% HSA) [3]: > 9950 nM

B10: Example 474 (peptide)
peptide: YXEGTXTSDXXIXLDXQAQXXFIKXLIKGGPSSGAPPPS
modifications: Y-Aib-EGT-αMeF(2F)-TSD-4Pal-Aib-I-αMeL-LD-Orn-QAQ-Aib-Orn-FIK((2-[2-(2-Amino-ethoxy)-ethoxy]-acetyl)2-(γ-Glu)2-CO-(CH2)12-CO2H)-αMeY-LIK((2-[2-(2-Amino-ethoxy)-ethoxy]-acetyl)2-(γ-Glu)2-CO-(CH2)12-CO2H)GGPSSGAPPPS-NH2
cAMP EC50 (1.0% HSA) [1]: 0.156 nM | cAMP EC50 (1.0% HSA) [2]: 1.1 nM | cAMP EC50 (1.0% HSA) [3]: > 9950 nM

B11: Example 425 (peptide)
peptide: YXEGTXTSDKXIXLDXKAQXEFIXXLIEGGPSSGAPPPS
modifications: Y-Aib-EGT-αMeF(2F)-TSDK((2-[2-(2-Amino-ethoxy)-ethoxy]-acetyl)-(γ-Glu)-CO-(CH2)10-CH3)-Aib-I-αMeL-LD-Orn-K((2-[2-(2-Amino-ethoxy)-ethoxy]-acetyl)-(γ-Glu)-CO-(CH2)10-CH3)AQ-Aib-EFI-(D-Glu)-αMeY-LIEGGPSSGAPPPS-NH2
cAMP EC50 [4]: 0.0965 nM | cAMP Emax [4]: 108% | cAMP EC50 [5]: 0.00943 nM | cAMP Emax [5]: 97.6% | cAMP EC50 [6]: > 9950 nM | cAMP EC50 (1.0% HSA) [1]: 0.875 nM | cAMP Emax (1.0% HSA) [1]: 89.9% | cAMP EC50 (1.0% HSA) [3]: > 9950 nM

B12: Example 472 (peptide)
peptide: YXEGTXTSDXXIXLDXQAQXXFIKXLIKGGPSSGAPPPS
modifications: Y-Aib-EGT-αMeF(2F)-TSD-4Pal-Aib-I-αMeL-LD-Orn-QAQ-Aib-Orn-FIK((2-[2-(2-Amino-ethoxy)-ethoxy]-acetyl)-Trx-(γ-Glu)-CO-(CH2)12-CO2H)-αMeY-LIK(((2-[2-(2-Amino-ethoxy)-ethoxy]-acetyl)-Trx-(γ-Glu)-CO-(CH2)12-CO2H)GGPSSGAPPPS-NH2)
cAMP EC50 (1.0% HSA) [1]: 0.663 nM | cAMP Emax (1.0% HSA) [1]: 76.3% | cAMP EC50 (1.0% HSA) [2]: 7.41 nM | cAMP EC50 (1.0% HSA) [3]: > 9950 nM

B13: Example 469 (peptide)
peptide: YXEGTXTSDXXIXLDXQAQXXFIKXLIKGGPSSGAPPPS
modifications: Y-Aib-EGT-αMeF(2F)-TSD-4Pal-Aib-I-αMeL-LD-Orn-QAQ-Aib-Orn-FIK(PEG5-(γ-Glu)-(10-(4-carboxyphenoxy)decanoyl))-αMeY-LIK(PEG5-(γ-Glu)-(10-(4-carboxyphenoxy)decanoyl))GGPSSGAPPPS-NH2
cAMP EC50 (1.0% HSA) [1]: 0.203 nM | cAMP EC50 (1.0% HSA) [2]: 2.33 nM | cAMP EC50 (1.0% HSA) [3]: > 9950 nM

B14: Example 470 (peptide)
peptide: YXEGTXTSDXXIXLDXQAQXXFIKXLIKGGPSSGAPPPS
modifications: Y-Aib-EGT-αMeF(2F)-TSD-4Pal-Aib-I-αMeL-LD-Orn-QAQ-Aib-Orn-FIK((2-[2-(2-Amino-ethoxy)-ethoxy]-acetyl)2--Trx-(γ-Glu)-CO-(CH2)12-CO2H)-αMeY-LIK(((2-[2-(2-Amino-ethoxy)-ethoxy]-acetyl)2--Trx(γ-Glu)-CO-(CH2)12-CO2H)GGPSSGAPPPS-NH2)
cAMP EC50 (1.0% HSA) [1]: 0.719 nM | cAMP EC50 (1.0% HSA) [2]: 4.54 nM | cAMP EC50 (1.0% HSA) [3]: > 9950 nM

B15: Example 490 (peptide)
peptide: Y[Aib]EGT[αMePhe(2-F)]TSD[Nle]SI[αMeL]LD[Orn]QAQ[Aib][Orn]FIK([AEEA-AEEA-γGlu-C14 diacid])[αMeY]LIK([AEEA-AEEA-γGlu-C14 diacid])GGPSSGAPPPS-NH2
cAMP EC50 (1.0% HSA) [1]: 0.976 nM | cAMP Emax (1.0% HSA) [1]: 97.1% | cAMP EC50 (1.0% HSA) [2]: 7.68 nM | cAMP EC50 (1.0% HSA) [3]: > 9950 nM
